In publication PMC7367873, “Dissecting the sequence determinants for dephosphorylation by the catalytic subunits of phosphatases PP1 and PP2A” (Nature Communications, 2020):

B1: SH3PXD2A (protein, UniProt Q5TCZ1 1-1133, looked up)
SH3 and PX domain-containing …: MLAYCVQDATVVDVEKRRNPSKHYVYIINVTWSDSTSQTIYRRYSKFFDLQMQLLDKFPIEGGQKDPKQRIIPFLPGKILFRRSHIRDVAVKRLKPIDEYCRALVRLPPHISQCDEVFRFFEARPEDVNPPKEDYGSSKRKSVWLSSWAESPKKDVTGADATAEPMILEQYVVVSNYKKQENSELSLQAGEVVDVIEKNESGWWFVSTSEEQGWVPATYLEAQNGTRDDSDINTSKTGEVSKRRKAHLRRLDRRWTLGGMVNRQHSREEKYVTVQPYTSQSKDEIGFEKGVTVEVIRKNLEGWWYIRYLGKEGWAPASYLKKAKDDLPTRKKNLAGPVEIIGNIMEISNLLNKKASGDKETPPAEGEGHEAPIAKKEISLPILCNASNGSAVGVPDRTVSRLAQGSPAVARIAPQRAQISSPNLRTRPPPRRESSLGFQLPKPPEPPSVEVEYYTIAEFQSCISDGISFRGGQKAEVIDKNSGGWWYVQIGEKEGWAPASYIDKRKKPNLSRRTSTLTRPKVPPPAPPSKPKEAEEGPTGASESQDSPRKLKYEEPEYDIPAFGFDSEPELSEEPVEDRASGERRPAQPHRPSPASSLQRARFKVGESSEDVALEEETIYENEGFRPYAEDTLSARGSSGDSDSPGSSSLSLTRKNSPKSGSPKSSSLLKLKAEKNAQAEMGKNHSSASFSSSITINTTCCSSSSSSSSSLSKTSGDLKPRSASDAGIRGTPKVRAKKDADANAGLTSCPRAKPSVRPKPFLNRAESQSQEKMDISTLRRQLRPTGQLRGGLKGSKSEDSELPPQTASEAPSEGSRRSSSDLITLPATTPPCPTKKEWEGPATSYMTCSAYQKVQDSEISFPAGVEVQVLEKQESGWWYVRFGELEGWAPSHYLVLDENEQPDPSGKELDTVPAKGRQNEGKSDSLEKIERRVQALNTVNQSKKATPPIPSKPPGGFGKTSGTPAVKMRNGVRQVAVRPQSVFVSPPPKDNNLSCALRRNESLTATDGLRGVRRNSSFSTARSAAAEAKGRLAERAASQGSDSPLLPAQRNSIPVSPVRPKPIEKSQFIHNNLKDVYVSIADYEGDEETAGFQEGVSMEVLERNPNGWWYCQILDGVKPFKGWVPSNYLEKKN
B2: MAP3K2 (protein, UniProt Q9Y2U5 1-619, looked up)
Mitogen-activated protein …: MDDQQALNSIMQDLAVLHKASRPALSLQETRKAKSSSPKKQNDVRVKFEHRGEKRILQFPRPVKLEDLRSKAKIAFGQSMDLHYTNNELVIPLTTQDDLDKAVELLDRSIHMKSLKILLVINGSTQATNLEPLPSLEDLDNTVFGAERKKRLSIIGPTSRDRSSPPPGYIPDELHQVARNGSFTSINSEGEFIPESMDQMLDPLSLSSPENSGSGSCPSLDSPLDGESYPKSRMPRAQSYPDNHQEFSDYDNPIFEKFGKGGTYPRRYHVSYHHQEYNDGRKTFPRARRTQGTSLRSPVSFSPTDHSLSTSSGSSIFTPEYDDSRIRRRGSDIDNPTLTVMDISPPSRSPRAPTNWRLGKLLGQGAFGRVYLCYDVDTGRELAVKQVQFDPDSPETSKEVNALECEIQLLKNLLHERIVQYYGCLRDPQEKTLSIFMEYMPGGSIKDQLKAYGALTENVTRKYTRQILEGVHYLHSNMIVHRDIKGANILRDSTGNVKLGDFGASKRLQTICLSGTGMKSVTGTPYWMSPEVISGEGYGRKADIWSVACTVVEMLTEKPPWAEFEAMAAIFKIATQPTNPKLPPHVSDYTRDFLKRIFVEAKLRPSADELLRHMFVHYH
B3: MITF (protein, UniProt O75030 1-526, looked up)
Microphthalmia-associated …: MQSESGIVPDFEVGEEFHEEPKTYYELKSQPLKSSSSAEHPGASKPPISSSSMTSRILLRQQLMREQMQEQERREQQQKLQAAQFMQQRVPVSQTPAINVSVPTTLPSATQVPMEVLKVQTHLENPTKYHIQQAQRQQVKQYLSTTLANKHANQVLSLPCPNQPGDHVMPPVPGSSAPNSPMAMLTLNSNCEKEGFYKFEEQNRAESECPGMNTHSRASCMQMDDVIDDIISLESSYNEEILGLMDPALQMANTLPVSGNLIDLYGNQGLPPPGLTISNSCPANLPNIKRELTACIFPTESEARALAKERQKKDNHNLIERRRRFNINDRIKELGTLIPKSNDPDMRWNKGTILKASVDYIRKLQREQQRAKELENRQKKLEHANRHLLLRIQELEMQARAHGLSLIPSTGLCSPDLVNRIIKQEPVLENCSQDLLQHHADLTCTTTLDLTDGTITFNNNLGTGTEANQAYSVPTKMGSKLEDILMDDTLSPVGVTDPLLSSVSPGASKTSSRRSSMSMEETEHTC
B4: KIF5B (protein, UniProt P33176 2-963, looked up)
Kinesin-1 heavy chain: ADLAECNIKVMCRFRPLNESEVNRGDKYIAKFQGEDTVVIASKPYAFDRVFQSSTSQEQVYNDCAKKIVKDVLEGYNGTIFAYGQTSSGKTHTMEGKLHDPEGMGIIPRIVQDIFNYIYSMDENLEFHIKVSYFEIYLDKIRDLLDVSKTNLSVHEDKNRVPYVKGCTERFVCSPDEVMDTIDEGKSNRHVAVTNMNEHSSRSHSIFLINVKQENTQTEQKLSGKLYLVDLAGSEKVSKTGAEGAVLDEAKNINKSLSALGNVISALAEGSTYVPYRDSKMTRILQDSLGGNCRTTIVICCSPSSYNESETKSTLLFGQRAKTIKNTVCVNVELTAEQWKKKYEKEKEKNKILRNTIQWLENELNRWRNGETVPIDEQFDKEKANLEAFTVDKDITLTNDKPATAIGVIGNFTDAERRKCEEEIAKLYKQLDDKDEEINQQSQLVEKLKTQMLDQEELLASTRRDQDNMQAELNRLQAENDASKEEVKEVLQALEELAVNYDQKSQEVEDKTKEYELLSDELNQKSATLASIDAELQKLKEMTNHQKKRAAEMMASLLKDLAEIGIAVGNNDVKQPEGTGMIDEEFTVARLYISKMKSEVKTMVKRCKQLESTQTESNKKMEENEKELAACQLRISQHEAKIKSLTEYLQNVEQKKRQLEESVDALSEELVQLRAQEKVHEMEKEHLNKVQTANEVKQAVEQQIQSHRETHQKQISSLRDEVEAKAKLITDLQDQNQKMMLEQERLRVEHEKLKATDQEKSRKLHELTVMQDRREQARQDLKGLEETVAKELQTLHNLRKLFVQDLATRVKKSAEIDSDDTGGSAAQKQKISFLENNLEQLTKVHKQLVRDNADLRCELPKLEKRLRATAERVKALESALKEAKENASRDRKRYQQEVDRIKEAVRSKNMARRGHSAQIAKPIRPGQHPAASPTHPSAIRGGGAFVQNSQPVAVRGGGGKQV
B5: PPP1R12A (protein, UniProt O14974 1-1030, looked up)
Protein phosphatase 1 …: MKMADAKQKRNEQLKRWIGSETDLEPPVVKRQKTKVKFDDGAVFLAACSSGDTDEVLKLLHRGADINYANVDGLTALHQACIDDNVDMVKFLVENGANINQPDNEGWIPLHAAASCGYLDIAEFLIGQGAHVGAVNSEGDTPLDIAEEEAMEELLQNEVNRQGVDIEAARKEEERIMLRDARQWLNSGHINDVRHAKSGGTALHVAAAKGYTEVLKLLIQAGYDVNIKDYDGWTPLHAAAHWGKEEACRILVDNLCDMEMVNKVGQTAFDVADEDILGYLEELQKKQNLLHSEKRDKKSPLIESTANMDNNQSQKTFKNKETLIIEPEKNASRIESLEQEKVDEEEEGKKDESSCSSEEDEEDDSESEAETDKTKPLASVTNANTSSTQAAPVAVTTPTVSSGQATPTSPIKKFPTTATKISPKEEERKDESPATWRLGLRKTGSYGALAEITASKEGQKEKDTAGVTRSASSPRLSSSLDNKEKEKDSKGTRLAYVAPTIPRRLASTSDIEEKENRDSSSLRTSSSYTRRKWEDDLKKNSSVNEGSTYHKSCSFGRRQDDLISSSVPSTTSTPTVTSAAGLQKSLLSSTSTTTKITTGSSSAGTQSSTSNRLWAEDSTEKEKDSVPTAVTIPVAPTVVNAAASTTTLTTTTAGTVSSTTEVRERRRSYLTPVRDEESESQRKARSRQARQSRRSTQGVTLTDLQEAEKTIGRSRSTRTREQENEEKEKEEKEKQDKEKQEEKKESETSREDEYKQKYSRTYDETYQRYRPVSTSSSTTPSSSLSTMSSSLYASSQLNRPNSLVGITSAYSRGITKENEREGEKREEEKEGEDKSQPKSIRERRRPREKRRSTGVSFWTQDSDENEQEQQSDTEEGSNKKETQTDSISRYETSSTSAGDRYDSLLGRSGSYSYLEERKPYSSRLEKDDSTDFKKLYEQILAENEKLKAQLHDTNMELTDLKLQLEKATQRQERFADRSLLEMEKRERRALERRISEMEEELKMLPDLKADNQRLKDENGALIRVISKLSK
B6: RHPN2 (protein, UniProt Q8IUC4 1-686, looked up)
Rhophilin-2: MTDALLPAAPQPLEKENDGYFRKGCNPLAQTGRSKLQNQRAALNQQILKAVRMRTGAENLLKVATNSKVREQVRLELSFVNSDLQMLKEELEGLNISVGVYQNTEEAFTIPLIPLGLKETKDVDFAVVLKDFILEHYSEDGYLYEDEIADLMDLRQACRTPSRDEAGVELLMTYFIQLGFVESRFFPPTRQMGLLFTWYDSLTGVPVSQQNLLLEKASVLFNTGALYTQIGTRCDRQTQAGLESAIDAFQRAAGVLNYLKDTFTHTPSYDMSPAMLSVLVKMMLAQAQESVFEKISLPGIRNEFFMLVKVAQEAAKVGEVYQQLHAAMSQAPVKENIPYSWASLACVKAHHYAALAHYFTAILLIDHQVKPGTDLDHQEKCLSQLYDHMPEGLTPLATLKNDQQRRQLGKSHLRRAMAHHEESVREASLCKKLRSIEVLQKVLCAAQERSRLTYAQHQEEDDLLNLIDAPSVVAKTEQEVDIILPQFSKLTVTDFFQKLGPLSVFSANKRWTPPRSIRFTAEEGDLGFTLRGNAPVQVHFLDPYCSASVAGAREGDYIVSIQLVDCKWLTLSEVMKLLKSFGEDEIEMKVVSLLDSTSSMHNKSATYSVGMQKTYSMICLAIDDDDKTDKTKKISKKLSFLSWGTNKNRQKSASTLCLPSVGAARPQVKKKLPSPFSLLNSDSSWY
B7: CCT2 (protein, UniProt P78371 2-535, looked up)
T-complex protein 1 subunit …: ASLSLAPVNIFKAGADEERAETARLTSFIGAIAIGDLVKSTLGPKGMDKILLSSGRDASLMVTNDGATILKNIGVDNPAAKVLVDMSRVQDDEVGDGTTSVTVLAAELLREAESLIAKKIHPQTIIAGWREATKAAREALLSSAVDHGSDEVKFRQDLMNIAGTTLSSKLLTHHKDHFTKLAVEAVLRLKGSGNLEAIHIIKKLGGSLADSYLDEGFLLDKKIGVNQPKRIENAKILIANTGMDTDKIKIFGSRVRVDSTAKVAEIEHAEKEKMKEKVERILKHGINCFINRQLIYNYPEQLFGAAGVMAIEHADFAGVERLALVTGGEIASTFDHPELVKLGSCKLIEEVMIGEDKLIHFSGVALGEACTIVLRGATQQILDEAERSLHDALCVLAQTVKDSRTVYGGGCSEMLMAHAVTQLANRTPGKEAVAMESYAKALRMLPTIIADNAGYDSADLVAQLRAAHSEGNTTAGLDMREGTIGDMAILGITESFQVKRQVLLSAAEAAEVILRVDNIIKAAPRKRVPDHHPC

Tested on: GFP-14-3-3β and its binding proteins
Test: GFP-14-3-3β co-IP with LC-MS/MS label-free quantification, untreated versus PP1c-treated
Design: species or system human
Conditions: PP1 vs untreated; LFQ intensities, replicates 1-3

Row | Difference (log2), PP1 vs untreated [log2] | Molecule
1 | -1.555 | B1
2 | -1.618 | B2
3 | -1.637 | B3
4 | -1.944 | B4
5 | -1.93 | B5
6 | -1.815 | B6
7 | -1.71 | B7

Tested on: GFP-14-3-3β
Test: GFP-14-3-3β co-IP with LC-MS/MS, untreated GFP-14-3-3β versus GFP control (14-3-3 interactome)
Assay type: binding, human
Conditions: untreated vs GFP; LFQ intensities, replicates 1-3

Row | Molecule | Difference (log2), untreated vs GFP [log2]
8 | B1 | 3.934
9 | B2 | 6.201
10 | B3 | 4.611
11 | B4 | 3.573
12 | B5 | 2.126
13 | B6 | 5.43
14 | B7 | 0.06414
